Here are results for 2 compounds from article PMC4417724 (Nature, 2014).

Test [1] has as its target recombinant hexahistidine tagged human Archease (human). In words: SPR. (In general: In SPR one partner is held on a chip, and binding of the other changes the refractive index at the surface.)
Test [2] deals with FLAG-RTCB (human tRNA ligase complex) with recombinant Archease (Homo sapiens, UniProt Q9Y3I0). Briefly: radiolabelled guanylation, SDS-PAGE autoradiography. The note with it: covalent RTCB-guanylate intermediate; labelled compound; Archease 10 μM, ATP, Mg(OAc)2, pH 7.5, 37 °C. The test is classed as biochemical.

What is called Kd is the constant that tells how readily two partners part at equilibrium.

FLAG-RTCB (human tRNA ligase complex) with recombinant Archease, sequence (Q9Y3I0 whole entry): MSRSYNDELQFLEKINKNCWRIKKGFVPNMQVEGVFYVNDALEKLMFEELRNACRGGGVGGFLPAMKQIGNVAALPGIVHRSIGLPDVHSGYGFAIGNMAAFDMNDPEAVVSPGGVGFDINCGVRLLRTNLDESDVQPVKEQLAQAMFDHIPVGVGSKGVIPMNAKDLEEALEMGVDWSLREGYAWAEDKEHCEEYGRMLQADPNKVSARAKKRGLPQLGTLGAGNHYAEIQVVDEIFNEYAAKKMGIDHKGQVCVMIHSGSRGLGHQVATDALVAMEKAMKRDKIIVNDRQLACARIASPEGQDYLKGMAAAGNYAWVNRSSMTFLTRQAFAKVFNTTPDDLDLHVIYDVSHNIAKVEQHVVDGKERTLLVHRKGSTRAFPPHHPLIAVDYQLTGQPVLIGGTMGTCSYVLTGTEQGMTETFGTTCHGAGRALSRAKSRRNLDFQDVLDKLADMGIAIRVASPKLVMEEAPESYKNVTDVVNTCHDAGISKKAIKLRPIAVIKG
FLAG-RTCB (human tRNA ligase complex) with recombinant Archease, sequence (Q8IWT0 2-167 partner): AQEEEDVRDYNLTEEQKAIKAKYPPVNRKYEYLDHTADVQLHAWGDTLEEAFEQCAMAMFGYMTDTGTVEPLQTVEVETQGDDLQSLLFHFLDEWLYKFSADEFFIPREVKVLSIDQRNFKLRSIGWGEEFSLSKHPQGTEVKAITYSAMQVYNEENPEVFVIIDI
FLAG-RTCB (human tRNA ligase complex) with recombinant Archease, sequence (Q92499 whole entry partner): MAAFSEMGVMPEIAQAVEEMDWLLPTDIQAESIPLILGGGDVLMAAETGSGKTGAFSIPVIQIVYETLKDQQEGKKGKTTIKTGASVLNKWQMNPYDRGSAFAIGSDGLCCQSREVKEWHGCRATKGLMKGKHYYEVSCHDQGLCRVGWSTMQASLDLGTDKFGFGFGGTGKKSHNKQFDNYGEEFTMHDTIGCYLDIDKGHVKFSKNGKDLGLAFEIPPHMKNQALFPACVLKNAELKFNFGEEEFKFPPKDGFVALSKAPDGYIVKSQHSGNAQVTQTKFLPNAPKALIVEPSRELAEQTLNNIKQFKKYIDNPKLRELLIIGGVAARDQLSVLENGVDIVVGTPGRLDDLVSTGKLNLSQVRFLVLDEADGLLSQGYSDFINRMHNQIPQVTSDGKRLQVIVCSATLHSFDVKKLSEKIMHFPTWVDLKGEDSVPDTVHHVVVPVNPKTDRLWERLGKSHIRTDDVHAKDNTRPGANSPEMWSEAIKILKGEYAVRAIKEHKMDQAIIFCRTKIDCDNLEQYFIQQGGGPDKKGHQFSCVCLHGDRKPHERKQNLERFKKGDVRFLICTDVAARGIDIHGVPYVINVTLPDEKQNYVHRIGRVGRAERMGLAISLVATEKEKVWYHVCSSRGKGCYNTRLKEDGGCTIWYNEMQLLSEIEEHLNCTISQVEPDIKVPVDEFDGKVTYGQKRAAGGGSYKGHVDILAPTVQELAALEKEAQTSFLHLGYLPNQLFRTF
FLAG-RTCB (human tRNA ligase complex) with recombinant Archease, sequence (Q52LJ0 whole entry partner): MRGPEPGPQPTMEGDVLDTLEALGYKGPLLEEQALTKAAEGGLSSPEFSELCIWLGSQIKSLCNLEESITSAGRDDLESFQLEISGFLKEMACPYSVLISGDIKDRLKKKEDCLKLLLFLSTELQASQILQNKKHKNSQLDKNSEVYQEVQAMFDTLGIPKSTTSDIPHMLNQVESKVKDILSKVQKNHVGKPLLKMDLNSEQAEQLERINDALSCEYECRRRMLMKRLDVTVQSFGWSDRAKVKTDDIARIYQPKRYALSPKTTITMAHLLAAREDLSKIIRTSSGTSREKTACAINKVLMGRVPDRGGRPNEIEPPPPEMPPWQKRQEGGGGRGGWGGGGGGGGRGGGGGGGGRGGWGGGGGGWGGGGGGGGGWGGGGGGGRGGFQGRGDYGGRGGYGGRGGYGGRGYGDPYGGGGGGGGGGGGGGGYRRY
FLAG-RTCB (human tRNA ligase complex) with recombinant Archease, sequence (Q9BVC5 whole entry partner): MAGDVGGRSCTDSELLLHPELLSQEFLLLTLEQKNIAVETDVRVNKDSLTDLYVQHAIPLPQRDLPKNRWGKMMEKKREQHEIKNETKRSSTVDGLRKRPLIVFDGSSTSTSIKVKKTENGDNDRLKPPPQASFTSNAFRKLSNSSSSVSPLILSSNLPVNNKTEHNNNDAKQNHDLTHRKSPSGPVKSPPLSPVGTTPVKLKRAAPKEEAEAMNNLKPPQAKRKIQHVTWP
FLAG-RTCB (human tRNA ligase complex) with recombinant Archease, sequence (Q9Y224 whole entry partner): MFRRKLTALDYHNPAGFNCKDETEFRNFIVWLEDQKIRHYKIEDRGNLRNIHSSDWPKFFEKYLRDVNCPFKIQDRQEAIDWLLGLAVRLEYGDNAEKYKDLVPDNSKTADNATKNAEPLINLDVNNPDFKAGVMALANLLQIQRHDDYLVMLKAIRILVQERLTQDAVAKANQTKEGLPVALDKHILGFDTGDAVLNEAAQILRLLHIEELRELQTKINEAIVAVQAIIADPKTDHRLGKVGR

As to “FLAG-RTCB complexes (human tRNA ligase complex affinity-purified by FLAG-RTCB) (from UniProt Q9Y3I0;Q92499;Q52LJ0;Q9Y224;Q9BVC5)”, in test [1], the Kd was determined as 1.8 nM. `Nc1nc2c(ncn2[C@@H]2O[C@H](COP(=O)(O)OP(=O)(O)OP(=O)(O)O)[C@@H](O)[C@H]2O)c(=O)[nH]1` [GTP]: the “radiolabelled guanylation, SDS-PAGE autoradiography” value in test [2] is listed as “Formation of a radiolabeled band corresponding to guanylated human FLAG-RTCB required the addition of WT Archease”.
